Experimental data as given in PMC9497888.

Biological target: fibrin (human) (UniProt P02671)
Sequence of UniProt P02671 (P02671 36-866, chain 1 of 3): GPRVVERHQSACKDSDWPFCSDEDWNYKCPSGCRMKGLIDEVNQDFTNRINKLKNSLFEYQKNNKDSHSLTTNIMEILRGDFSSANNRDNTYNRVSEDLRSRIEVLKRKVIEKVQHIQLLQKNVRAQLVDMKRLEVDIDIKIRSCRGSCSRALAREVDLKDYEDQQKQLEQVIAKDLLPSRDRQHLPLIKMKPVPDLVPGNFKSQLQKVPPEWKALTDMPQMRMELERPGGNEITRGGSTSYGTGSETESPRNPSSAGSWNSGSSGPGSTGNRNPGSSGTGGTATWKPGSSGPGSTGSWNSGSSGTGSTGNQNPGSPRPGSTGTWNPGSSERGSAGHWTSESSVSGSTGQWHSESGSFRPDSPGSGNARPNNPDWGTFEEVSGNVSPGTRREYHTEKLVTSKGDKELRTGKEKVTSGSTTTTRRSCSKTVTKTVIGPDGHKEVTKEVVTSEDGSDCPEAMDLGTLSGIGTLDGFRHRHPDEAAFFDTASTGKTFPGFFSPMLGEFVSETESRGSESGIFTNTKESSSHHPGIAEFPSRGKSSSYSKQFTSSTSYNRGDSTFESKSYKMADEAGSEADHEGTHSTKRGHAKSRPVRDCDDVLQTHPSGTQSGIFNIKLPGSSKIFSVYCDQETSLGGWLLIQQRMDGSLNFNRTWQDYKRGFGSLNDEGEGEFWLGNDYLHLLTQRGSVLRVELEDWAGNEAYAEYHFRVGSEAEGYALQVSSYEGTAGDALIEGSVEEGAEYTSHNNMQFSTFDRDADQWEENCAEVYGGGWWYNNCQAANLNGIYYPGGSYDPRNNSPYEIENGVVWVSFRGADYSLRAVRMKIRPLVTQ
Sequence of UniProt P02671 (P02675 45-491, chain 2 of 3, further chain): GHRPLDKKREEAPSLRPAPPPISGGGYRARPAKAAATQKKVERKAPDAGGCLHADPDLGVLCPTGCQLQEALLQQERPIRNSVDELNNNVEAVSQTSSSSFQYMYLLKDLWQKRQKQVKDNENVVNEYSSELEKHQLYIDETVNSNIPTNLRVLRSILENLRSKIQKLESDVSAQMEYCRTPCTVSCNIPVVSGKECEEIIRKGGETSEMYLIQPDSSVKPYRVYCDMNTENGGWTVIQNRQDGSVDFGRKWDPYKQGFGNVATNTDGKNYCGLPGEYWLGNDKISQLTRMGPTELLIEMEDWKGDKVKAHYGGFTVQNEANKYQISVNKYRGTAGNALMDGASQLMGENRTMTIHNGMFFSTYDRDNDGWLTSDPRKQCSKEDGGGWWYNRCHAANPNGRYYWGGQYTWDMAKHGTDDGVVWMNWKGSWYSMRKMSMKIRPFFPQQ
Sequence of UniProt P02671 (P02679 27-453, chain 3 of 3, further chain): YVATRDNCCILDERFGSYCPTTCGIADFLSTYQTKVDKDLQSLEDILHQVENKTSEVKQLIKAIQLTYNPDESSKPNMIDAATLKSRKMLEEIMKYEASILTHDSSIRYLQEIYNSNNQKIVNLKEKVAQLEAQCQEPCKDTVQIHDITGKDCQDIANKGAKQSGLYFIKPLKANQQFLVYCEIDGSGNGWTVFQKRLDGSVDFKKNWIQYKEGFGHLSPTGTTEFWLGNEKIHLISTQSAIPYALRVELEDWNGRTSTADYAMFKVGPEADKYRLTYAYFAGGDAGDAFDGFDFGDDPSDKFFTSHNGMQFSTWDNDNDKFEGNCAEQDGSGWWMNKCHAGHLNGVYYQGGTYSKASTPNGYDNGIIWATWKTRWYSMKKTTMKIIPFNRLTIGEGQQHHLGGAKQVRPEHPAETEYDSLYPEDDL

Substance: ANGlyα2+1 (DSPAα2 N155S, added N-glycosylation site N153) (from UniProt P15638 37-477) (enzyme)
- stimulation factor of S-2765 hydrolysis: Kcat/Km with fibrin cofactor (100 μg/mL) over Kcat/Km without cofactor: 3.1 fold

Substance: QNGlyα2 (DSPAα2 N185Q-N398Q) (from UniProt P15638 37-477) (enzyme)
- stimulation factor of S-2765 hydrolysis: Kcat/Km with fibrin cofactor (100 μg/mL) over Kcat/Km without cofactor: 1.7 fold

Substance: QNGlyα2-1 (DSPAα2 N185Q) (from UniProt P15638 37-477) (enzyme)
- stimulation factor of S-2765 hydrolysis: Kcat/Km with fibrin cofactor (100 μg/mL) over Kcat/Km without cofactor: 2 fold

Substance: QNGlyα2-2 (DSPAα2 N398Q) (from UniProt P15638 37-477) (enzyme)
- stimulation factor of S-2765 hydrolysis: Kcat/Km with fibrin cofactor (100 μg/mL) over Kcat/Km without cofactor: 7.4 fold

Substance: recombinant DSPAα2 (bat plasminogen activator α2), wild type (from UniProt P15638 37-477) (enzyme)
- stimulation factor of S-2765 hydrolysis: Kcat/Km with fibrin cofactor (100 μg/mL) over Kcat/Km without cofactor: 11.3 fold
